Assay results published in the supplement of paper PMC10065799, “High-throughput profiling of sequence recognition by tyrosine kinases and SH2 domains using bacterial peptide display” (eLife, 2023).

Legend:
[1] = target: FGFR3 (UniProt P22607); assay: phosphorylation enrichment, bacterial display (enrichment ratio); higher = better substrate or ligand; peptides without Tyr show the background
[2] = test system: AncSZ; assay: as above
[3] = target: EPHB2 (UniProt P29323); assay: as above
[4] = target: FGFR1 (UniProt P11362); assay: as above
[5] = target: Fyn (UniProt P06241); assay: as above
[6] = target: Fes (UniProt P07332); assay: as above
[7] = test system: c-Src; assay: as above
[8] = target: MERTK (UniProt Q12866); assay: as above
[9] = target: Jak2 (UniProt O60674); assay: as above
[10] = test system: c-Abl (mouse); assay: as above
[11] = target: Hck (UniProt P08631); assay: as above
[12] = test system: Fer (mouse); assay: as above
[13] = target: EPHB1 (UniProt P54762); assay: as above
[14] = target: SHP2-C SH2; assay: SH2 binding enrichment of the phosphorylated peptide, bacterial display (enrichment ratio); higher = better substrate or ligand; peptides without Tyr show the background
[15] = target: c-Src SH2; assay: as above
[16] = target: Grb2 SH2 (UniProt P62993); assay: as above
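For SH2 binding enrichment of the phosphorylated peptide, bacterial display in this document: peptide library displayed on the E. coli surface as eCPX fusions, selected cells deep-sequenced, score is each peptide's frequency after selection divided by its frequency in the input.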
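For phosphorylation enrichment, bacterial display in this document: 11-residue human phosphosite peptides and single-mutation variants displayed on the E. coli surface, counted by deep sequencing, each peptide's frequency after selection divided by its frequency in the unselected input library; frequency after pTyr selection over input frequency; kinase dosed for 20-30% of maximal phosphorylation in three min.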

EPHB1, sequence (P54762 whole entry, looked up): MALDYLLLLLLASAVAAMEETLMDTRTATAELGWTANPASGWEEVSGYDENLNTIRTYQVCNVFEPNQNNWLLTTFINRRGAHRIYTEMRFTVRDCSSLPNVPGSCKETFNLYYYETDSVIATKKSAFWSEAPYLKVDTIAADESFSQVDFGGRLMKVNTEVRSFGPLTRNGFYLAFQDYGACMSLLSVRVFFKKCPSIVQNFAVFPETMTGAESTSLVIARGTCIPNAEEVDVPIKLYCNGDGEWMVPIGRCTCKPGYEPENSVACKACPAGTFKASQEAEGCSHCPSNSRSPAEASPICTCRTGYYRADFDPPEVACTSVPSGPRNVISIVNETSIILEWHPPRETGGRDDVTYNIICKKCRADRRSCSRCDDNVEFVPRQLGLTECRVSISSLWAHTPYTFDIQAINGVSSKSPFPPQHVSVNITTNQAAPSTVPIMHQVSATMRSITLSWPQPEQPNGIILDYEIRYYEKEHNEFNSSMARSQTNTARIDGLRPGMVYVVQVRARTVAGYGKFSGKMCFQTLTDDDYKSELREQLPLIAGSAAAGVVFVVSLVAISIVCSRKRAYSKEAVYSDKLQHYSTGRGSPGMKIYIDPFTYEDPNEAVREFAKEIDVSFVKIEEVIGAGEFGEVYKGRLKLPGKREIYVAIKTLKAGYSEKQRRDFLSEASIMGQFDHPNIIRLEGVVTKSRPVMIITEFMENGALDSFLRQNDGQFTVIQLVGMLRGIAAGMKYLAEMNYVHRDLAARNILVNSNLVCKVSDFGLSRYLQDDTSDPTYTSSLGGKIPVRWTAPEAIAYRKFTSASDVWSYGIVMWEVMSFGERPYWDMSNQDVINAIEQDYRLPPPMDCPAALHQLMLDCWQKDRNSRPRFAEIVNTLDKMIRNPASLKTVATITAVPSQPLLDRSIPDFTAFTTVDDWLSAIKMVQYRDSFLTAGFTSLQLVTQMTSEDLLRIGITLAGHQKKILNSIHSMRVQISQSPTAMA
MERTK, sequence (Q12866 whole entry, looked up): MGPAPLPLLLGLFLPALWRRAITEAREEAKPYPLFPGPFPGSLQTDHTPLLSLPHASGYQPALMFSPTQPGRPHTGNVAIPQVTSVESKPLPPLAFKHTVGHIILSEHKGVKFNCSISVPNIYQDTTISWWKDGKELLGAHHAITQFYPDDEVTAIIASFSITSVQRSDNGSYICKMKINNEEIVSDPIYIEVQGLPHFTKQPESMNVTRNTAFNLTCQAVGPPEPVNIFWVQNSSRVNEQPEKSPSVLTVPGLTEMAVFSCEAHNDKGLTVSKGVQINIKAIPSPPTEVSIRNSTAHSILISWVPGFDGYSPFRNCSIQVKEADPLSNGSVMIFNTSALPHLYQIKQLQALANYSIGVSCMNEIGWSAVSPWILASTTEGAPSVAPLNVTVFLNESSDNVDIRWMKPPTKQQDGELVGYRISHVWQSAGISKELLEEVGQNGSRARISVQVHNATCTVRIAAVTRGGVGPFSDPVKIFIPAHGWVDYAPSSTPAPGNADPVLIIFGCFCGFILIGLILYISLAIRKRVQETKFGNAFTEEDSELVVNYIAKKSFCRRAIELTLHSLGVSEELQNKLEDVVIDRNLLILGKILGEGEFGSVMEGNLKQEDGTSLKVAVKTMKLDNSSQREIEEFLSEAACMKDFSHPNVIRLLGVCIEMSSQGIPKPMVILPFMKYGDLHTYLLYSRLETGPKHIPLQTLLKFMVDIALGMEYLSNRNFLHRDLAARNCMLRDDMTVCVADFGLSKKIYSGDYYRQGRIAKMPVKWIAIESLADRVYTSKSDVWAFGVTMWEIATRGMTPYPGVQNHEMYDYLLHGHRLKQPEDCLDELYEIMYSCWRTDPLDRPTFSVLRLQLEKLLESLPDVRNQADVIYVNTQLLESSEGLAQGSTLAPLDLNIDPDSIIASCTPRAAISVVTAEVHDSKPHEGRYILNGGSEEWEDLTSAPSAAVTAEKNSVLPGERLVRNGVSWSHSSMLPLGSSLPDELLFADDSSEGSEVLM
Fyn, sequence (P06241 whole entry, looked up): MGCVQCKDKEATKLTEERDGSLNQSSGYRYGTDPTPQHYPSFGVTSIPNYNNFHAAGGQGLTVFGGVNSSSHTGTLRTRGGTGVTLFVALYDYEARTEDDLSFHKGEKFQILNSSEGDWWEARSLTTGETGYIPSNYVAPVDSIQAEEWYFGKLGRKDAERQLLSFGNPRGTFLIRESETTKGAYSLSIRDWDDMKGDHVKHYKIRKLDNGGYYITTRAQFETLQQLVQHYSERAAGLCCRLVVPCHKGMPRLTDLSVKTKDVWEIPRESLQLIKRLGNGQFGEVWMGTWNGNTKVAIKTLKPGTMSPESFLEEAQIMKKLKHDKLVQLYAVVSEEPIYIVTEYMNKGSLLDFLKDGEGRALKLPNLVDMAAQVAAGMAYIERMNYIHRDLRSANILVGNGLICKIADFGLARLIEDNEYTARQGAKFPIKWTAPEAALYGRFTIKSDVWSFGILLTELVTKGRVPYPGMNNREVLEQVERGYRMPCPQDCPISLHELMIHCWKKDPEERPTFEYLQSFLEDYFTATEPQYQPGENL
Jak2, sequence (O60674 whole entry, looked up): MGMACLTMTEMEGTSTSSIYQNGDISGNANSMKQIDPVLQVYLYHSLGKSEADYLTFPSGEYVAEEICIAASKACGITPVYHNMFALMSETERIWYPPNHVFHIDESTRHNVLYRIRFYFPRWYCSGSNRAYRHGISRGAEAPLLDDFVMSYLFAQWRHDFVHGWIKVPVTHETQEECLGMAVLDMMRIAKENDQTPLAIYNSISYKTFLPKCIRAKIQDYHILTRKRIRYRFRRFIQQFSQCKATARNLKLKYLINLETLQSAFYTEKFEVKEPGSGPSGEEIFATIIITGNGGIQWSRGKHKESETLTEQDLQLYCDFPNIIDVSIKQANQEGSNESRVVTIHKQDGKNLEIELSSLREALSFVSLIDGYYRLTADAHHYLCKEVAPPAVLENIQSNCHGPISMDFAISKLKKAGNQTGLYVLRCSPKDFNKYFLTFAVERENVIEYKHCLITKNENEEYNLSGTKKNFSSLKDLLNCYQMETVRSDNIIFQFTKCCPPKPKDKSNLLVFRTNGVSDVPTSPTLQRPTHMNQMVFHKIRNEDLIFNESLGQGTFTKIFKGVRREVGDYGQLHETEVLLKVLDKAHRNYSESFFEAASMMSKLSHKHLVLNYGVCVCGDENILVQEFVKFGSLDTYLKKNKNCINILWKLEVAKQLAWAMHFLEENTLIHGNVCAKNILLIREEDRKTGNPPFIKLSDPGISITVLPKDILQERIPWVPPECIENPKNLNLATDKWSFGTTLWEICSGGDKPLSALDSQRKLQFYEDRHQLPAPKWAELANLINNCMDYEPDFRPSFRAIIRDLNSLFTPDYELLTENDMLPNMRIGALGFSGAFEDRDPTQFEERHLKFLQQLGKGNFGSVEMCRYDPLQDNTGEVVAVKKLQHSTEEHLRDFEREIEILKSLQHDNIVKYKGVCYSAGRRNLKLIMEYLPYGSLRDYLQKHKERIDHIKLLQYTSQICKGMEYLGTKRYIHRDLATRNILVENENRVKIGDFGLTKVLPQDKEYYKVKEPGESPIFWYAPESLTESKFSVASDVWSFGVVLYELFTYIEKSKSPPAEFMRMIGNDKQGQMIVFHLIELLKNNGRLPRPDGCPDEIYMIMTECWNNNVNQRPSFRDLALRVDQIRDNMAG
FGFR1, sequence (P11362 whole entry, looked up): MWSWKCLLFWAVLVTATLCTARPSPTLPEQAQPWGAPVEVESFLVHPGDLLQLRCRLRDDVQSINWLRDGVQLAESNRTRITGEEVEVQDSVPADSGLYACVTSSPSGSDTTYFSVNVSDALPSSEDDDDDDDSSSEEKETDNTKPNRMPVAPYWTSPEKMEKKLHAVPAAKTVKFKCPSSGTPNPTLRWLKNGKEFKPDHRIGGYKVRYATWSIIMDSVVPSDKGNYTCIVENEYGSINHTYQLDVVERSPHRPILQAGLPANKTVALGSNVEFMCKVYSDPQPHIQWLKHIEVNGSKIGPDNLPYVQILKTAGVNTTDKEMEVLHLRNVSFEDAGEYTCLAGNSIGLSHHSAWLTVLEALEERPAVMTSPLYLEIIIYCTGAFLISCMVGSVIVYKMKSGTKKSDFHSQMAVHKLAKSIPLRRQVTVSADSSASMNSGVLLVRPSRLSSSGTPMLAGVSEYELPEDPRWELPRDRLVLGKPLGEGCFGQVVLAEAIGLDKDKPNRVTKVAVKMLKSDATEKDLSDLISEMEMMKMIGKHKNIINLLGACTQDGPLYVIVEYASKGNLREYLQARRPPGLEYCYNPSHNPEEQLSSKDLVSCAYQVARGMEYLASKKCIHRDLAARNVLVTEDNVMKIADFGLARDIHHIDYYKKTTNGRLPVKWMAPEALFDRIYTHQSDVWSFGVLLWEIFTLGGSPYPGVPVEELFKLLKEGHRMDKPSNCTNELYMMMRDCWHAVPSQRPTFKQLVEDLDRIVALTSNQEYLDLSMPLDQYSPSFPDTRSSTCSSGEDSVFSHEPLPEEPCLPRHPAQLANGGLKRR
Hck, sequence (P08631 whole entry, looked up): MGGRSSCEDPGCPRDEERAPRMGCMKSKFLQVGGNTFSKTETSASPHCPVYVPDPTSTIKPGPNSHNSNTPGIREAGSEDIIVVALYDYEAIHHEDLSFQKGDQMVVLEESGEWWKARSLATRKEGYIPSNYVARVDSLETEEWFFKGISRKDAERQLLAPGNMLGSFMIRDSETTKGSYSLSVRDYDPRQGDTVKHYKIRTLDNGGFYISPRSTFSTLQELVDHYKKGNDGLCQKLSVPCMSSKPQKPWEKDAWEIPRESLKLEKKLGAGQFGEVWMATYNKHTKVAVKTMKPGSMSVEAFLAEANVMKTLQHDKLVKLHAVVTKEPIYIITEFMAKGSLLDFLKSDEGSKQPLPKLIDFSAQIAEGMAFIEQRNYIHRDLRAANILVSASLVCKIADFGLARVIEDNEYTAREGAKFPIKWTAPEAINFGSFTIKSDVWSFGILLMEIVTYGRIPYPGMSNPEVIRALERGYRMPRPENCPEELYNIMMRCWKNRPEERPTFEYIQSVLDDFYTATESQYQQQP

Row | Sequence | SH2 binding enrichment [14] | SH2 binding enrichment [15] | SH2 binding enrichment [16] | phosphorylation enrichment [1] | phosphorylation enrichment [2] | phosphorylation enrichment [3] | phosphorylation enrichment [4] | phosphorylation enrichment [5] | phosphorylation enrichment [6] | phosphorylation enrichment [7] | phosphorylation enrichment [8] | phosphorylation enrichment [9] | phosphorylation enrichment [10] | phosphorylation enrichment [11] | phosphorylation enrichment [12] | phosphorylation enrichment [13]
1 | DEEFEYMNRRR [ERBB3_Y1199_YF] | 0.799 | 0.521 | 0.842 | 0.612 | 1.3 | 0.66 | 0.591 | 0.643 | 1.18 | 0.564 | 0.597 | 1.01 | 0.688 | 0.497 | 0.474 | 0.481
2 | DGTVHYVDEKG [IFT140_Y216] | 0.544 | 0.381 | 0.64 | 0.83 | 1.02 | 0.682 | 0.592 | 0.671 | 1.23 | 0.376 | 0.443 | 0.832 | 0.653 | 0.586 | 0.593 | 0.666
3 | DHAGEYGAEAL [HBA1_Y25_A20D] | 1.11 | 0.506 | 0.825 | 0.621 | 0.86 | 0.569 | 0.509 | 0.427 | 0.892 | 0.405 | 0.343 | 0.675 | 0.546 | 0.495 | 0.403 | 0.426
4 | DHPSEYAARQL [ANXA13_Y90_R86H] | 0.657 | 0.483 | 0.826 | 0.445 | 0.657 | 0.494 | 0.496 | 0.454 | 0.633 | 0.482 | 0.453 | 0.576 | 0.66 | 0.525 | 0.365 | 0.352
5 | DKATEYIQFMR [MAX_Y70_YF] | 0.608 | 0.565 | 0.887 | 0.655 | 1 | 0.549 | 0.589 | 0.675 | 1.01 | 0.703 | 0.439 | 0.793 | 0.803 | 0.69 | 0.439 | 0.528
6 | DKTGEYPVPLT [ACADM_Y73_I78T] | 0.522 | 0.474 | 0.924 | 0.578 | 0.863 | 0.438 | 0.426 | 0.487 | 0.902 | 0.448 | 0.44 | 0.649 | 0.57 | 0.382 | 0.397 | 0.502
7 | DLLMQYPKAQG [FAM83C_Y600] | 0.763 | 0.485 | 0.882 | 0.467 | 0.812 | 0.301 | 0.341 | 0.385 | 0.543 | 0.352 | 0.356 | 0.496 | 0.491 | 0.364 | 0.452 | 0.498
8 | DPHECYAKVFD [ALB_Y394] | 1.32 | 3.02 | 0.987 | 0.749 | 1.11 | 0.591 | 0.506 | 0.488 | 1.14 | 0.665 | 0.42 | 0.88 | 0.692 | 0.582 | 0.584 | 0.593
9 | DRLASYLDKMR [KRT17_Y98_V102M] | 0.529 | 0.488 | 1.03 | 0.513 | 0.697 | 0.467 | 0.483 | 0.751 | 0.912 | 0.459 | 0.45 | 0.667 | 0.606 | 0.473 | 0.436 | 0.376
10 | DRLASYLDKVR [KRT10_Y160] | 0.626 | 0.507 | 0.848 | 0.471 | 0.619 | 0.429 | 0.435 | 0.378 | 0.643 | 0.345 | 0.379 | 0.533 | 0.519 | 0.454 | 0.336 | 0.4
11 | DSGRDYVSQFE [APOA1_Y53] | 0.631 | 0.487 | 0.875 | 0.673 | 0.914 | 0.492 | 0.462 | 0.489 | 0.922 | 0.403 | 0.409 | 0.665 | 0.601 | 0.529 | 0.478 | 0.685
12 | DTKPVYQNLRQ [BOD1_Y82_A81V] | 1.65 | 3.29 | 20.8 | 0.456 | 0.596 | 0.44 | 0.511 | 1.07 | 0.752 | 1.07 | 0.533 | 0.621 | 0.708 | 1.29 | 0.507 | 0.549
13 | DTQNSYGCATS [TSC1_Y304] | 0.918 | 0.595 | 0.867 | 0.707 | 0.7 | 0.445 | 0.422 | 0.433 | 0.834 | 0.555 | 0.393 | 0.489 | 0.884 | 0.498 | 0.483 | 0.432
14 | DTQNSYWCATS [TSC1_Y304_G305W] | 0.849 | 0.884 | 1.01 | 0.832 | 0.952 | 0.456 | 1.07 | 0.485 | 0.916 | 0.52 | 1.36 | 0.805 | 0.633 | 0.518 | 0.405 | 0.535
15 | DVVKDYAFVHM [RBM14_Y114] | 0.608 | 0.472 | 0.823 | 2.45 | 0.929 | 5.38 | 3.87 | 0.419 | 0.933 | 0.466 | 0.574 | 0.661 | 0.659 | 0.435 | 2.58 | 7.47
16 | DYTEAYNSKIK [CLK1_Y305_P307S] | 0.582 | 1 | 0.587 | 0.585 | 0.897 | 0.449 | 0.514 | 0.339 | 0.969 | 0.492 | 0.454 | 0.965 | 0.584 | 0.382 | 0.377 | 0.446
17 | EALSLYTKLMN [STAM_Y371] | 1.41 | 1.02 | 0.713 | 0.856 | 1.39 | 0.639 | 0.391 | 0.402 | 1.48 | 0.551 | 0.411 | 1.49 | 0.832 | 0.505 | 0.509 | 0.615

Continued, in another order:

Row | SH2 binding enrichment [14] | SH2 binding enrichment [15] | SH2 binding enrichment [16] | Sequence | phosphorylation enrichment [1] | phosphorylation enrichment [2] | phosphorylation enrichment [3] | phosphorylation enrichment [4] | phosphorylation enrichment [5] | phosphorylation enrichment [6] | phosphorylation enrichment [7] | phosphorylation enrichment [8] | phosphorylation enrichment [9] | phosphorylation enrichment [10] | phosphorylation enrichment [11] | phosphorylation enrichment [12] | phosphorylation enrichment [13]
18 | 0.674 | 0.437 | 0.714 | DAVCFYRMENA [NPHS2_Y195_I192V_YF] | 1.06 | 1.21 | 0.685 | 0.698 | 0.986 | 1.23 | 3.07 | 0.695 | 1.22 | 0.882 | 0.788 | 0.614 | 0.698
19 | 0.64 | 0.418 | 0.833 | DDHFTYSRFPW [LY75_Y888_YF] | 0.797 | 1.16 | 5.18 | 0.905 | 4.83 | 1.07 | 4.98 | 3.18 | 1.28 | 1.66 | 6.66 | 0.609 | 4.84
20 | 0.461 | 0.453 | 0.67 | DFEGLYQEGGG [TMEM159_Y159_E154D] | 0.817 | 1.23 | 0.791 | 0.761 | 0.874 | 1.17 | 0.923 | 0.453 | 0.88 | 0.569 | 1.22 | 0.64 | 0.746
21 | 1.4 | 0.469 | 0.938 | DKATEYIQYMR [MAX_Y70] | 0.572 | 0.852 | 0.451 | 0.479 | 0.624 | 0.622 | 0.486 | 0.4 | 0.625 | 0.499 | 0.504 | 0.394 | 0.448
22 | 0.54 | 0.44 | 0.664 | DKGTLYIAEQI [PLBD1_Y375_V377A] | 0.666 | 0.763 | 0.446 | 0.441 | 0.459 | 0.887 | 0.383 | 0.346 | 0.743 | 0.65 | 0.447 | 0.372 | 0.565
23 | 0.594 | 0.361 | 0.897 | DLGIQYKALKP [CTNNA1_Y177] | 0.631 | 0.754 | 0.442 | 0.507 | 0.388 | 0.853 | 0.449 | 0.453 | 0.725 | 0.573 | 0.485 | 0.498 | 0.568
24 | 0.682 | 0.505 | 0.902 | DLQDEYDFKRK [STAT1_Y170_C174R] | 0.643 | 0.992 | 0.54 | 0.472 | 0.465 | 1.16 | 0.476 | 0.355 | 0.916 | 0.588 | 0.472 | 0.463 | 0.495
25 | 1.19 | 0.574 | 0.991 | DPLLTYLFPPK [LMNA_Y481_R482L] | 2.62 | 2.2 | 0.781 | 4.35 | 1.8 | 1.08 | 3.12 | 0.772 | 2.79 | 0.836 | 0.87 | 0.481 | 0.992
26 | 0.59 | 0.419 | 0.874 | DRLASYLDKAR [KRT14_Y129_V133A] | 0.45 | 0.586 | 0.324 | 0.37 | 0.373 | 0.634 | 0.349 | 0.378 | 0.627 | 0.914 | 0.342 | 0.403 | 0.297
27 | 0.953 | 0.414 | 0.707 | DTFDPYLDVAL [USP36_Y268_YF] | 0.857 | 1.18 | 0.622 | 0.658 | 0.704 | 1.24 | 0.712 | 0.557 | 1.25 | 0.833 | 0.701 | 1.52 | 0.641
28 | 0.6 | 0.598 | 0.815 | EATKGHLDDPT [G6PD_Y322_Y322H] | 0.664 | 0.851 | 0.488 | 0.467 | 0.584 | 1.04 | 0.453 | 0.448 | 0.856 | 0.821 | 0.496 | 0.55 | 0.643
29 | 0.746 | 0.534 | 0.837 | EATKVYLDDPT [G6PD_Y322_G321V] | 0.656 | 0.852 | 0.558 | 0.428 | 0.444 | 0.967 | 0.357 | 0.385 | 0.803 | 0.656 | 0.458 | 0.451 | 0.482
